Results taken from publication PMC6695498 (2019).

Legend:
[1] = biological target: SUMO2 chain (linear dimer/trimer) (Homo sapiens, UniProt P61956); assay: ITC
[2] = biological target: SUMO1-capped SUMO2 chain (linear dimer/trimer) (Homo sapiens, UniProt P63165); assay: ITC
Chain of SUMO1-capped SUMO2 chain (linear dimer/trimer) (P63165 2-97, chain 1 of 2): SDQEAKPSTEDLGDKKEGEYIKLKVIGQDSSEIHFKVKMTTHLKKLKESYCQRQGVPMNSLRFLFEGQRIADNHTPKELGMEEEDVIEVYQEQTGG
Chain of SUMO1-capped SUMO2 chain (linear dimer/trimer) (chain, as listed by the source, chain 2 of 2): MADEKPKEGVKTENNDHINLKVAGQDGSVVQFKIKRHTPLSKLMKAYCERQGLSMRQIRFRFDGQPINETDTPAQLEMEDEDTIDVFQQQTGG

Chain of SUMO2 chain (linear dimer/trimer) (P61956 1-93): as the sequence (chain, as listed by the source, chain 2 of 2) above

Kd [1]: ~13.5 µM
Kd [2]: ~2.5 µM
B1: Arkadia SUMO-binding domain (protein)
chain: VLARRKYALLPSSSSSSENDLSSESSSSSSTEGEEDLFVSASENHQNNPAVPSGSIDEDVVVIEASSTPQVTANEEINVTSTDSEVEIVTVGESYRSRSTLGHSRSHWSQGSSSHASRPQEPRNRSRISTVIQPLRQNAAEVVDLTVDEDEPTVVPTTSARMES
